Results taken from the supplement of paper PMC10724198.
± gives the standard deviation of the averaged measurements.

Key:
Saccharomyces cerevisiae [1] = assay: protein stability index of tFT-peptide fusion (C-terminal peptide) (PSI (0-1 scale)); higher = more stable (slower turnover)
Experimental: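 MPS profiling in S. cerevisiae of the tFT-X12 degron library: putative degron peptides plus stable controls, 12 aa, fused to the C-terminus of a sfGFP-mCherry timer. Cells are FACS-sorted into 8 mCherry/sfGFP bins and deep-sequenced. PSI runs from 0 (unstable) to 1 (stable). Backgrounds are wild type, das1Δ and doa10Δ at 30 °C, and wild type, das1Δ, cdc34-1 and cdc53-1 at 37 °C; 2-3 technical replicates each.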

Saccharomyces cerevisiae [2] = assay: as above; settings: genetic background: wild type; temperature: 30 C
[3] = genetic background: cdc34-1, temperature: 37 C
[4] = genetic background: cdc53-1, temperature: 37 C
[5] = genetic background: das1 deletion, temperature: 30 C
[6] = genetic background: das1 deletion, temperature: 37 C
[7] = genetic background: doa10 deletion, temperature: 30 C
[8] = genetic background: wild type, temperature: 30 C
[9] = genetic background: wild type, temperature: 37 C
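Also: PSI is a weighted mean of sequencing reads over stability bins, variants kept only with over 10 reads, mCherry proximal and sfGFP distal, peptide attached via GGGS linker.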

LLGGFAAFWRIL
protein stability index (Saccharomyces cerevisiae [1]; [3]): 0.631 ± 0.061
protein stability index (Saccharomyces cerevisiae [1]; [4]): 0.713 ± 0.0012
protein stability index (Saccharomyces cerevisiae [1]; [5]): 0.618 ± 0.012
protein stability index (Saccharomyces cerevisiae [1]; [6]): 0.753 ± 0.014
protein stability index (Saccharomyces cerevisiae [1]; [7]): 0.135 ± 0.015
protein stability index (Saccharomyces cerevisiae [1]; [8]): 0.15 ± 0.02
protein stability index (Saccharomyces cerevisiae [1]; [9]): 0.297 ± 0.026
protein stability index (Saccharomyces cerevisiae [2]): 0.226 ± 0.06

GGGWCEMLIVVG
protein stability index (Saccharomyces cerevisiae [1]; [3]): 0.506 ± 0.018
protein stability index (Saccharomyces cerevisiae [1]; [4]): 0.512 ± 0.026
protein stability index (Saccharomyces cerevisiae [1]; [5]): 0.358 ± 0.029
protein stability index (Saccharomyces cerevisiae [1]; [6]): 0.5495 ± 0.0039
protein stability index (Saccharomyces cerevisiae [1]; [7]): 0.324 ± 0.013
protein stability index (Saccharomyces cerevisiae [1]; [8]): 0.367 ± 0.03
protein stability index (Saccharomyces cerevisiae [1]; [9]): 0.542 ± 0.017
protein stability index (Saccharomyces cerevisiae [2]): 0.441 ± 0.018

RVITRMLLMVIR
protein stability index (Saccharomyces cerevisiae [1]; [3]): 0.318 ± 0.056
protein stability index (Saccharomyces cerevisiae [1]; [4]): 0.365 ± 0.031
protein stability index (Saccharomyces cerevisiae [1]; [5]): 0.353 ± 0.029
protein stability index (Saccharomyces cerevisiae [1]; [6]): 0.512 ± 0.019
protein stability index (Saccharomyces cerevisiae [1]; [7]): 0.493 ± 0.0081
protein stability index (Saccharomyces cerevisiae [1]; [8]): 0.359 ± 0.011
protein stability index (Saccharomyces cerevisiae [1]; [9]): 0.47449 ± 0.00047
protein stability index (Saccharomyces cerevisiae [2]): 0.43 ± 0.036

PPLLLFLSLAFL
protein stability index (Saccharomyces cerevisiae [1]; [3]): 0.322 ± 0.02
protein stability index (Saccharomyces cerevisiae [1]; [4]): 0.407 ± 0.012
protein stability index (Saccharomyces cerevisiae [1]; [5]): 0.285 ± 0.027
protein stability index (Saccharomyces cerevisiae [1]; [6]): 0.449 ± 0.015
protein stability index (Saccharomyces cerevisiae [1]; [7]): 0.239 ± 0.012
protein stability index (Saccharomyces cerevisiae [1]; [8]): 0.271 ± 0.028
protein stability index (Saccharomyces cerevisiae [1]; [9]): 0.441 ± 0.009
protein stability index (Saccharomyces cerevisiae [2]): 0.381 ± 0.054

PFYQSGGLVVVV
protein stability index (Saccharomyces cerevisiae [1]; [3]): 0.58 ± 0.024
protein stability index (Saccharomyces cerevisiae [1]; [4]): 0.63 ± 0.017
protein stability index (Saccharomyces cerevisiae [1]; [5]): 0.469 ± 0.034
protein stability index (Saccharomyces cerevisiae [1]; [6]): 0.62927 ± 0.00041
protein stability index (Saccharomyces cerevisiae [1]; [7]): 0.437 ± 0.021
protein stability index (Saccharomyces cerevisiae [1]; [8]): 0.464 ± 0.023
protein stability index (Saccharomyces cerevisiae [1]; [9]): 0.583 ± 0.029
protein stability index (Saccharomyces cerevisiae [2]): 0.21 ± 0.039

FWMLCFLCRLTV
protein stability index (Saccharomyces cerevisiae [1]; [3]): 0.3236 ± 0.0019
protein stability index (Saccharomyces cerevisiae [1]; [4]): 0.338 ± 0.0098
protein stability index (Saccharomyces cerevisiae [1]; [5]): 0.306 ± 0.043
protein stability index (Saccharomyces cerevisiae [1]; [6]): 0.459 ± 0.011
protein stability index (Saccharomyces cerevisiae [1]; [7]): 0.2213 ± 0.0021
protein stability index (Saccharomyces cerevisiae [1]; [8]): 0.221 ± 0.026
protein stability index (Saccharomyces cerevisiae [1]; [9]): 0.361 ± 0.0071
protein stability index (Saccharomyces cerevisiae [2]): 0.32 ± 0.03

LFFLPPCYWFLL
protein stability index (Saccharomyces cerevisiae [1]; [3]): 0.665 ± 0.023
protein stability index (Saccharomyces cerevisiae [1]; [4]): 0.773 ± 0.024
protein stability index (Saccharomyces cerevisiae [1]; [5]): 0.5834 ± 0.0043
protein stability index (Saccharomyces cerevisiae [1]; [6]): 0.732 ± 0.049
protein stability index (Saccharomyces cerevisiae [1]; [7]): 0.384 ± 0.034
protein stability index (Saccharomyces cerevisiae [1]; [8]): 0.392 ± 0.03
protein stability index (Saccharomyces cerevisiae [1]; [9]): 0.571 ± 0.013
protein stability index (Saccharomyces cerevisiae [2]): 0.489 ± 0.019

AGLLVLISWRLF
protein stability index (Saccharomyces cerevisiae [1]; [3]): 0.0795 ± 0.014
protein stability index (Saccharomyces cerevisiae [1]; [4]): 0.213 ± 0.036
protein stability index (Saccharomyces cerevisiae [1]; [5]): 0.171 ± 0.029
protein stability index (Saccharomyces cerevisiae [1]; [6]): 0.337 ± 0.0065
protein stability index (Saccharomyces cerevisiae [1]; [7]): 0.124 ± 0.013
protein stability index (Saccharomyces cerevisiae [1]; [8]): 0.141 ± 0.019
protein stability index (Saccharomyces cerevisiae [1]; [9]): 0.223 ± 0.022
protein stability index (Saccharomyces cerevisiae [2]): 0.217 ± 0.036

RWCLELLWITSC
protein stability index (Saccharomyces cerevisiae [1]; [3]): 0.325 ± 0.013
protein stability index (Saccharomyces cerevisiae [1]; [4]): 0.451 ± 0.013
protein stability index (Saccharomyces cerevisiae [1]; [5]): 0.355 ± 0.03
protein stability index (Saccharomyces cerevisiae [1]; [6]): 0.5006 ± 0.005
protein stability index (Saccharomyces cerevisiae [1]; [7]): 0.0892 ± 0.0011
protein stability index (Saccharomyces cerevisiae [1]; [8]): 0.0824 ± 0.015
protein stability index (Saccharomyces cerevisiae [1]; [9]): 0.0678 ± 0.011
protein stability index (Saccharomyces cerevisiae [2]): 0.162 ± 0.015

YYLHFRFFIYVF
protein stability index (Saccharomyces cerevisiae [1]; [3]): 0.0536 ± 0.019
protein stability index (Saccharomyces cerevisiae [1]; [4]): 0.0916 ± 0.0088
protein stability index (Saccharomyces cerevisiae [1]; [5]): 0.108 ± 0.035
protein stability index (Saccharomyces cerevisiae [1]; [6]): 0.201 ± 0.0051
protein stability index (Saccharomyces cerevisiae [1]; [7]): 0.0759 ± 0.019
protein stability index (Saccharomyces cerevisiae [1]; [8]): 0.0626 ± 0.013
protein stability index (Saccharomyces cerevisiae [1]; [9]): 0.13 ± 0.0084
protein stability index (Saccharomyces cerevisiae [2]): 0.113 ± 0.031

RGPSQVIVAFFV
protein stability index (Saccharomyces cerevisiae [1]; [3]): 0.663 ± 0.027
protein stability index (Saccharomyces cerevisiae [1]; [4]): 0.6843 ± 0.0038
protein stability index (Saccharomyces cerevisiae [1]; [5]): 0.522 ± 0.026
protein stability index (Saccharomyces cerevisiae [1]; [6]): 0.688 ± 0.0083
protein stability index (Saccharomyces cerevisiae [1]; [7]): 0.3186 ± 0.0031
protein stability index (Saccharomyces cerevisiae [1]; [8]): 0.371 ± 0.026
protein stability index (Saccharomyces cerevisiae [1]; [9]): 0.5674 ± 0.0018
protein stability index (Saccharomyces cerevisiae [2]): 0.49 ± 0.016

RGSLLRWFLAAQ
protein stability index (Saccharomyces cerevisiae [1]; [3]): 0.628 ± 0.031
protein stability index (Saccharomyces cerevisiae [1]; [4]): 0.707 ± 0.012
protein stability index (Saccharomyces cerevisiae [1]; [5]): 0.654 ± 0.034
protein stability index (Saccharomyces cerevisiae [1]; [6]): 0.706 ± 0.022
protein stability index (Saccharomyces cerevisiae [1]; [7]): 0.289 ± 0.0095
protein stability index (Saccharomyces cerevisiae [1]; [8]): 0.31 ± 0.029
protein stability index (Saccharomyces cerevisiae [1]; [9]): 0.541 ± 0.019
protein stability index (Saccharomyces cerevisiae [2]): 0.443 ± 0.014

IIPAFPFAFLAF
protein stability index (Saccharomyces cerevisiae [1]; [3]): 0.527 ± 0.0088
protein stability index (Saccharomyces cerevisiae [1]; [4]): 0.526 ± 0.018
protein stability index (Saccharomyces cerevisiae [1]; [5]): 0.415 ± 0.026
protein stability index (Saccharomyces cerevisiae [1]; [6]): 0.565 ± 0.0086
protein stability index (Saccharomyces cerevisiae [1]; [7]): 0.432 ± 0.0046
protein stability index (Saccharomyces cerevisiae [1]; [8]): 0.407 ± 0.017
protein stability index (Saccharomyces cerevisiae [1]; [9]): 0.541 ± 0.0073
protein stability index (Saccharomyces cerevisiae [2]): 0.489 ± 0.0067

FFCSILLGIILL
protein stability index (Saccharomyces cerevisiae [1]; [3]): 0.385 ± 0.014
protein stability index (Saccharomyces cerevisiae [1]; [4]): 0.401 ± 0.0091
protein stability index (Saccharomyces cerevisiae [1]; [5]): 0.364 ± 0.029
protein stability index (Saccharomyces cerevisiae [1]; [6]): 0.507 ± 0.016
protein stability index (Saccharomyces cerevisiae [1]; [7]): 0.47 ± 0.0098
protein stability index (Saccharomyces cerevisiae [1]; [8]): 0.37 ± 0.033
protein stability index (Saccharomyces cerevisiae [1]; [9]): 0.451 ± 0.011
protein stability index (Saccharomyces cerevisiae [2]): 0.399 ± 0.04

VFCFCRFHFFCA
protein stability index (Saccharomyces cerevisiae [1]; [3]): 0.621 ± 0.066
protein stability index (Saccharomyces cerevisiae [1]; [4]): 0.649 ± 0.0077
protein stability index (Saccharomyces cerevisiae [1]; [5]): 0.496 ± 0.025
protein stability index (Saccharomyces cerevisiae [1]; [6]): 0.631 ± 0.026
protein stability index (Saccharomyces cerevisiae [1]; [7]): 0.432 ± 0.019
protein stability index (Saccharomyces cerevisiae [1]; [8]): 0.453 ± 0.02
protein stability index (Saccharomyces cerevisiae [1]; [9]): 0.563 ± 0.018
protein stability index (Saccharomyces cerevisiae [2]): 0.484 ± 0.026

PALYLSLWFLFP
protein stability index (Saccharomyces cerevisiae [1]; [3]): 0.534 ± 0.056
protein stability index (Saccharomyces cerevisiae [1]; [4]): 0.606 ± 0.023
protein stability index (Saccharomyces cerevisiae [1]; [5]): 0.445 ± 0.043
protein stability index (Saccharomyces cerevisiae [1]; [6]): 0.603 ± 0.023
protein stability index (Saccharomyces cerevisiae [1]; [7]): 0.452 ± 0.013
protein stability index (Saccharomyces cerevisiae [1]; [8]): 0.456 ± 0.037
protein stability index (Saccharomyces cerevisiae [1]; [9]): 0.5761 ± 0.0011
protein stability index (Saccharomyces cerevisiae [2]): 0.512 ± 0.045

FFSRSLGAGVAA
protein stability index (Saccharomyces cerevisiae [1]; [3]): 0.71 ± 0.037
protein stability index (Saccharomyces cerevisiae [1]; [4]): 0.747 ± 0.044
protein stability index (Saccharomyces cerevisiae [1]; [5]): 0.602 ± 0.028
protein stability index (Saccharomyces cerevisiae [1]; [6]): 0.715 ± 0.041
protein stability index (Saccharomyces cerevisiae [1]; [7]): 0.5962 ± 0.0036
protein stability index (Saccharomyces cerevisiae [1]; [8]): 0.604 ± 0.013
protein stability index (Saccharomyces cerevisiae [1]; [9]): 0.724 ± 0.033
protein stability index (Saccharomyces cerevisiae [2]): 0.644 ± 0.21

LLLLASLFFRLA
protein stability index (Saccharomyces cerevisiae [1]; [3]): 0.522 ± 0.023
protein stability index (Saccharomyces cerevisiae [1]; [4]): 0.595 ± 0.01
protein stability index (Saccharomyces cerevisiae [1]; [5]): 0.467 ± 0.031
protein stability index (Saccharomyces cerevisiae [1]; [6]): 0.614 ± 0.03
protein stability index (Saccharomyces cerevisiae [1]; [7]): 0.177 ± 0.011
protein stability index (Saccharomyces cerevisiae [1]; [8]): 0.194 ± 0.015
protein stability index (Saccharomyces cerevisiae [1]; [9]): 0.37 ± 0.028
protein stability index (Saccharomyces cerevisiae [2]): 0.3 ± 0.016

PLLVVPVPRALY
protein stability index (Saccharomyces cerevisiae [1]; [3]): 0.675 ± 0.082
protein stability index (Saccharomyces cerevisiae [1]; [4]): 0.72 ± 0.0074
protein stability index (Saccharomyces cerevisiae [1]; [5]): 0.626 ± 0.011
protein stability index (Saccharomyces cerevisiae [1]; [6]): 0.733 ± 0.018
protein stability index (Saccharomyces cerevisiae [1]; [7]): 0.242 ± 0.0057
protein stability index (Saccharomyces cerevisiae [1]; [8]): 0.281 ± 0.013
protein stability index (Saccharomyces cerevisiae [1]; [9]): 0.491 ± 0.038
protein stability index (Saccharomyces cerevisiae [2]): 0.382 ± 0.021
